Measured values from US20200369755A1 (PROTHENA BIOSCIENCES, published 2020).
Changes are numbered by the printed parent chain. In names and notes the source's numbering stands. One block for each binder: values may come before it.

Key:
4R tau fibrils = molecular target: T1, 4R tau fibrils (UniProt P10636-6 1-383, limits assumed); assay: ELISA, biotinylated antibody on plate-coated preformed fibrils, 4-parameter fit
T1 construct: Fibrils pelleted at 100,000 x g and coated on ELISA plates; also called fibrillar tau; recombinant tau fibrils of 4-repeat tau
Procedure: (§1) ELISA plates were coated with preformed fibrils (overnight at 4° C. in 50 mM carbonate-bicarbonate buffer, pH 9.6), washed, and blocked with 1% BSA in PBS. After blocking, plates were incubated with the indicated concentrations of biotinylated primary antibody in 0.1% BSA/PBS for 1h at room temperature. Plates were washed, and then incubated with streptavidin-HRP in 0.1% BSA/PBS for 45 min. Plates were then washed and developed with OPD, and absorbance was measured at 490 nm. Binding curves were analyzed using a 4-parameter log fit.

[1] = molecular target: biotinylated recombinant tau (UniProt P10636-6 1-383, limits assumed, biotinylated); assay: competition ELISA: inhibition of biotinylated tau binding to plate-bound low molecular weight heparin
Procedure: To test the ability of murine and humanized 3D6 variants to interrupt tau interaction with heparin, ELISA plates coated with low molecular weight heparin were first blocked with 2% BSA in PBS for 2h at room temperature. Plates were washed with TBST. After blocking, plates were incubated with biotinylated recombinant tau along with indicated concentrations of unlabeled antibody in 1% BSA/PBS for one hour at room temperature. Plates were again washed, and then incubated with streptavidin-HRP in 0.1% BSA/PBS for 45 min. Plates were then washed and developed with OPD, and absorbance was measured at 490 nm. Inhibition curves were analyzed using a 4-parameter log fit.

[2] = molecular target: T2, mixed fibrils of 3-repeat and 4-repeat tau (UniProt P10636 1-352; P10636 1-383, limits assumed); assay: ELISA on plates coated with preformed mixed 3R/4R tau fibrils, biotinylated antibody, streptavidin-HRP, OPD, A490 [binding to mixed fibrils]
T2 construct: Made by seeded growth of 3-repeat and 4-repeat tau; also called fibrils containing both 3R and 4R tau
Procedure: as §1

[3] = molecular target: T3, recombinant human 4R0N tau (human, UniProt P10636 2-758); assay: SPR, Biacore T200, antibody captured on anti-human Fc, tau as analyte, 1:1 fit
T3 construct: also called P10636-6
Procedure: Target binding analysis was performed using a Biacore T200 to compare the binding affinity of humanized 3D6 variants to recombinant human 4R0N tau. Anti-Human Fc antibody was immobilized on sensor chip CM3 via amine coupling, and humanized 3D6 variants were captured to equivalent levels. […] Data was blank subtracted to both an irrelevant sensor not containing antibody and 0 nM analyte concentration. Analysis was performed using a global 1:1 fit with Biacore Evaluation software.

recombinant human tau = recombinant human tau (human, UniProt P10636 1-383); assay: SPR (Biacore T200): antibody captured on an anti-mouse chip, recombinant human tau 10-0.14 nM as analyte, global 1:1 fit
Procedure: Methods: SPR analysis was performed using a Biacore T200 to determine the binding kinetics of murine antibodies to recombinant human tau. To prepare a sensor surface, anti-mouse antibody (GE Life Sciences) was immobilized on sensor chip CM5 via amine coupling, and antibody was captured at a level to ensure maximum binding of 50 RU. Various concentrations of recombinant tau ranging from 10-0.14 nM were passed over the captured ligand at a flow rate of 50 μL/min in running buffer (HBS+0.05% P-20, 1 mg/mL BSA), for 180 sec association and 900 sec dissociation. Data were double-referenced to both an irrelevant sensor not containing antibody ligand, and 0 nM analyte concentration to account for the dissociation of ligand from the capture moiety. Data was then analyzed using a global 1:1 fit.

T3 sequence (P10636 other isoform, or with tags, fused parts or gaps limits assumed): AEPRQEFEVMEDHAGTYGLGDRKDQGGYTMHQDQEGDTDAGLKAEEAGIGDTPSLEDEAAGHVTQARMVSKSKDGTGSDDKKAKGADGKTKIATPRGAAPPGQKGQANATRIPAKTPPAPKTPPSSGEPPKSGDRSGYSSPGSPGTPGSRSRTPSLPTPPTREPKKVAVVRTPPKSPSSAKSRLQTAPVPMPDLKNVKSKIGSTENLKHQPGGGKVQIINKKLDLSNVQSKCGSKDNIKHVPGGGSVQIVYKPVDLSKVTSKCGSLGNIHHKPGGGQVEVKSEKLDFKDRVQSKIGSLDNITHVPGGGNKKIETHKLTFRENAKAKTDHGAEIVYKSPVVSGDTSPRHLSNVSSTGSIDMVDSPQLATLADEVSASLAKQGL
Chain of recombinant human tau (P10636 other isoform, or with tags, fused parts or gaps): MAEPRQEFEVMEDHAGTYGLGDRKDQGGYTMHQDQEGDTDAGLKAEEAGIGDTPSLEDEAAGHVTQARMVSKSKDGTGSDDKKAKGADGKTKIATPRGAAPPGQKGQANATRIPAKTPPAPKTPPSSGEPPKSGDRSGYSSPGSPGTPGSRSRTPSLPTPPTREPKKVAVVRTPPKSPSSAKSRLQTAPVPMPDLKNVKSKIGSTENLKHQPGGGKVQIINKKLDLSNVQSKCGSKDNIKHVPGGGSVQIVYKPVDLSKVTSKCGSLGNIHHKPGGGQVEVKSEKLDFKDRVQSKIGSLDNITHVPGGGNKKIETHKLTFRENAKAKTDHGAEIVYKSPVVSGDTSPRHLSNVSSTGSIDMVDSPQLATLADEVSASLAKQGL
T2 sequence (P10636 other isoform, or with tags, fused parts or gaps limits assumed, chain 1 of 2): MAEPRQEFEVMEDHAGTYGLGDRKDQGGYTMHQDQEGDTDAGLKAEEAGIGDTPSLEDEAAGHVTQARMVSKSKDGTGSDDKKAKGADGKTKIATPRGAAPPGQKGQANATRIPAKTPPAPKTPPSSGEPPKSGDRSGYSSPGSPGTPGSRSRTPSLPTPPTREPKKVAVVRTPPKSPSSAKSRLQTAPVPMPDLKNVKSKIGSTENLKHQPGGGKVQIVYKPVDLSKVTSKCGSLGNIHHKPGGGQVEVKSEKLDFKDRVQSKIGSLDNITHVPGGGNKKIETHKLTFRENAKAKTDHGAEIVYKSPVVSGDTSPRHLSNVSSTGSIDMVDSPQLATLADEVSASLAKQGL
T2 sequence (P10636 other isoform, or with tags, fused parts or gaps limits assumed, chain 2 of 2): as the sequence (P10636 other isoform, or with tags, fused parts or gaps) above
Chain of biotinylated recombinant tau (P10636 other isoform, or with tags, fused parts or gaps limits assumed): as the sequence (P10636 other isoform, or with tags, fused parts or gaps) above
T1 sequence (P10636 other isoform, or with tags, fused parts or gaps limits assumed): as the sequence (P10636 other isoform, or with tags, fused parts or gaps) above

B1: hu3D6VHv1bA11/hu3D6VLv2 (antibody, V domains shown)
VH: EVQLVQSGAEVVKPGATVKISCKASGFNIKDYYLHWVRQRPGQGLEWIGWIDPENGDTVYDPKFQGRATITADTSTDTAYLQLGSLTSEDTAVYFCSTLDFWGQGTLVTVSS
VL: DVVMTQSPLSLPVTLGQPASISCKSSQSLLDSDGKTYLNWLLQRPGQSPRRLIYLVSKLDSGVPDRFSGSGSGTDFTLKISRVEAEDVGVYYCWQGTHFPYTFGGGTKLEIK
notes: Humanized antibody expressed in 293 cells, captured by anti-human Fc; also called parental hu3D6VHv1bA11/hu3D6VLv2; h3D6Hu5 heavy chain variable region
- EC50 (4R tau fibrils): 0.237 nM
- IC50 [1]: 0.565 nM
- EC50 (read off the curve) [2]: ~0.9 nM
- Kd [3]: 0.181 nM
- koff [3]: 0.00074 s⁻¹
- kon [3]: 4.17e+06 M⁻¹ s⁻¹

B4: h3D6VHvb8/L2-DIM6 (antibody, V domains shown)
VH: B1 VH with D61E
VL: DVVMTQSPLSLPVTLGQPASISCKSSQSLLDSDGKTYLNWLQQRPGQSPRRLIYLVGKDDSGVPDRFSGSGSGTDFTLKISRVEAEDVGVYYCWQGTHFPYTFGGGTKLEIK
notes: Humanized antibody with human Fc
- Kd [3]: 1.5 nM
- koff [3]: 5.67 s⁻¹

B7: hu3D6VHv1bA11/L2-DIM17 (antibody, V domains shown)
VH: B1 VH
VL: B4 VL with L55D, G57S, D59G
notes: as for B4
- Kd [3]: 1.03 nM

B14: hu3D6VHv1bA11/L2-DIM19 (antibody, V domains shown)
VH: B1 VH
VL: B4 VL with L55E, G57S, D59G
notes: as for B4
- Kd [3]: 1.79 nM
- koff [3]: 5.88 s⁻¹

B15: hu3D6VHv1bA11/L2-DIM18 (antibody, V domains shown)
VH: B1 VH
VL: B4 VL with L55D, G57S, D59R
notes: as for B4
- Kd [3]: 2.51 nM
- koff [3]: 0.00378 s⁻¹
- kon [3]: 1.51e+06 M⁻¹ s⁻¹

B16: hu3D6VHv1bA11/L2-DIM6 (antibody, V domains shown)
VH: B1 VH
VL: B4 VL
notes: as for B4
- Kd [3]: 1.49 nM
- koff [3]: 0.00461 s⁻¹
- kon [3]: 3.08e+06 M⁻¹ s⁻¹

B17: hu3D6VHv1bA11/L2-DIM14 (antibody, V domains shown)
VH: B1 VH
VL: B4 VL with L55D, G57S, D59L
notes: as for B4
- Kd [3]: 1.53 nM

B19: hu3D6VHv1bA11/L2-DIM20 (antibody, V domains shown)
VH: B1 VH
VL: B4 VL with L55E, G57S, D59R
notes: as for B4
- Kd [3]: 36 nM
- koff [3]: 0.00935 s⁻¹
- kon [3]: 260000 M⁻¹ s⁻¹

B21: 5G8 (antibody, V domains shown)
VH: EVQLQQSGAELVRSGASVRLSCTASGFNIKDYYMHWVRQRPEQGLEWIGWIDPENGDTVYAPKFQGKATMTSDTSSNTAYLHLSSLTSEDTAVYYCSPLDFWGQGTTLTVSS
VL: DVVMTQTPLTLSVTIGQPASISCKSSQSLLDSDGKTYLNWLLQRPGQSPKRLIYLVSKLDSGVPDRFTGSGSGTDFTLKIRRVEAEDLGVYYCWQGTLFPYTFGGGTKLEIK
- Kd (recombinant human tau): 6.78 nM
- koff (recombinant human tau): 0.00254 s⁻¹
- kon (recombinant human tau): 375000 M⁻¹ s⁻¹

B22: 8A4 (antibody, V domains shown)
VH: EVQLQQSGAELVRPGALVKLSCKASGFNIKDYYIHWVKQRPEQGLEWIGWIDPENGDTVYDPQFQDKANITADTSSNTAYLQLSSLTSEGTAVYYCSTLDFWGQGTTLTVSS
VL: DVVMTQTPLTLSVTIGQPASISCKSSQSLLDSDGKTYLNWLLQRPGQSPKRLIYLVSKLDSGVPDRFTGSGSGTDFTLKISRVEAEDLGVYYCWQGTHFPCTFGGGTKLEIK
- Kd (recombinant human tau): 3.8 nM
- koff (recombinant human tau): 0.00227 s⁻¹
- kon (recombinant human tau): 599000 M⁻¹ s⁻¹

More lines, now with the values ahead:

- Kd [3]: 0.183 nM
- koff [3]: 0.000735 s⁻¹
- kon [3]: 4.02e+06 M⁻¹ s⁻¹
B2: hu3D6VHv1bA11/L2-DIM5 (antibody, V domains shown)
VH: B1 VH
VL: B4 VL with D59T
notes: as for B4

- Kd [3]: 0.226 nM
- koff [3]: 0.00102 s⁻¹
- kon [3]: 4.51e+06 M⁻¹ s⁻¹
B3: h3D6VHvb8/L2-DIM4 (antibody, V domains shown)
VH: B1 VH with D61E
VL: B4 VL with D59R
notes: as for B4

- Kd [3]: 0.16 nM
- koff [3]: 0.00074 s⁻¹
- kon [3]: 4.63e+06 M⁻¹ s⁻¹
B5: hu3D6VHv1bA11/L2-DIM9 (antibody, V domains shown)
VH: B1 VH
VL: B4 VL with Q42L, D59L
notes: Humanized antibody with human Fc; also called hu3D6VHv1bA11 / hu3D6VLv2 S52G

- Kd [3]: 0.485 nM
- koff [3]: 0.00133 s⁻¹
- kon [3]: 2.74e+06 M⁻¹ s⁻¹
B6: hu3D6VHv1bA11/L2-DIM12 (antibody, V domains shown)
VH: B1 VH
VL: B4 VL with G57S
notes: as for B4

- Kd [3]: 0.708 nM
- koff [3]: 0.00251 s⁻¹
- kon [3]: 3.54e+06 M⁻¹ s⁻¹
B8: hu3D6VHv1bA11/L2-DIM22 (antibody, V domains shown)
VH: B1 VH
VL: B4 VL with Q42L, L55G, G57S, D59L
notes: Humanized antibody with human Fc; also called hu3D6VHv1bA11 / hu3D6VLv2 L50G

- Kd [3]: 0.904 nM
- koff [3]: 0.00285 s⁻¹
- kon [3]: 3.15e+06 M⁻¹ s⁻¹
B9: hu3D6VHv1bA11/L2-DIM13 (antibody, V domains shown)
VH: B1 VH
VL: B4 VL with L55G, G57S, D59L
notes: as for B4

- Kd [3]: 0.199 nM
- koff [3]: 0.000781 s⁻¹
- kon [3]: 3.93e+06 M⁻¹ s⁻¹
B10: hu3D6VHv1bA11/L2-DIM3 (antibody, V domains shown)
VH: B1 VH
VL: B4 VL with D59G
notes: as for B4

- EC50 (4R tau fibrils): 0.192 nM
- IC50 [1]: 0.423 nM
- EC50 (read off the curve) [2]: ~0.7 nM
- Kd [3]: 0.0948 nM
- koff [3]: 0.000535 s⁻¹
- kon [3]: 5.65e+06 M⁻¹ s⁻¹
B11: hu3D6VHv1bA11/L2-DIM4 (antibody, V domains shown)
VH: B1 VH
VL: B4 VL with D59R

- Kd [3]: 0.696 nM
- koff [3]: 0.00149 s⁻¹
- kon [3]: 2.15e+06 M⁻¹ s⁻¹
B12: hu3D6VHv1bA11/L2-DIM21 (antibody, V domains shown)
VH: B1 VH
VL: B4 VL with Q42L, G57S
notes: Humanized antibody with human Fc; also called hu3D6VHv1bA11 / hu3D6VLv2 L54D

- Kd [3]: 0.427 nM
- koff [3]: 0.0014 s⁻¹
- kon [3]: 3.28e+06 M⁻¹ s⁻¹
B13: h3D6VHvb8/L2-DIM8 (antibody, V domains shown)
VH: B1 VH with D61E
VL: B4 VL with G57S, D59L
notes: Humanized antibody with human Fc; also called hu3D6VHv1bA11 D60E / hu3D6VLv2 L37Q

- Kd [3]: 0.281 nM
- koff [3]: 0.000971 s⁻¹
- kon [3]: 3.46e+06 M⁻¹ s⁻¹
B18: hu3D6VHv1bA11/L2-DIM7 (antibody, V domains shown)
VH: B1 VH
VL: B4 VL with Q42L, G57S, D59G
notes: Humanized antibody with human Fc; also called hu3D6VHv1bA11 / hu3D6VLv2 L54G

- Kd [3]: 0.275 nM
- koff [3]: 0.00119 s⁻¹
- kon [3]: 4.31e+06 M⁻¹ s⁻¹
B20: h3D6VHvb8/L2-DIM7 (antibody, V domains shown)
VH: B1 VH with D61E
VL: B4 VL with Q42L, G57S, D59G
notes: Humanized antibody with human Fc; also called hu3D6VHv1bA11 D60E / hu3D6VLv2 L54G
